Assay results published in patent publication US20060234906A1, “Structure of a complex of retinoblastoma protein bound to e2f, and uses thereof” (priority 2002, published 2006).

Molecular target: T1, RbAB and RbABC (Homo sapiens, UniProt P06400)
T1 construct: non-tagged RbAB (residues 372-787); His6-RbABC (RESIDUES 380-929); made in house; host or cells: E. coli
T1 sequence (P06400 372-787 limits assumed): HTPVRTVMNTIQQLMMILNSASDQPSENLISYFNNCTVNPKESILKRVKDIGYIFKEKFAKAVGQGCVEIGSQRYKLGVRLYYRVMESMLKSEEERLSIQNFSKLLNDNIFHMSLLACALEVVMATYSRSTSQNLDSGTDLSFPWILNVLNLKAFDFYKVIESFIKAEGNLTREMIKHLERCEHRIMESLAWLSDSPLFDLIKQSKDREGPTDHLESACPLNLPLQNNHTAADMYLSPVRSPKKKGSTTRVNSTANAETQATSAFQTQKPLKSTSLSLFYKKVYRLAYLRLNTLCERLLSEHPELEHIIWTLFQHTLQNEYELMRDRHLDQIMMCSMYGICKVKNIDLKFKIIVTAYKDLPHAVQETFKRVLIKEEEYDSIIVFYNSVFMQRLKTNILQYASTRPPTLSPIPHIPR
T1 sequence (P06400 380-928 limits assumed): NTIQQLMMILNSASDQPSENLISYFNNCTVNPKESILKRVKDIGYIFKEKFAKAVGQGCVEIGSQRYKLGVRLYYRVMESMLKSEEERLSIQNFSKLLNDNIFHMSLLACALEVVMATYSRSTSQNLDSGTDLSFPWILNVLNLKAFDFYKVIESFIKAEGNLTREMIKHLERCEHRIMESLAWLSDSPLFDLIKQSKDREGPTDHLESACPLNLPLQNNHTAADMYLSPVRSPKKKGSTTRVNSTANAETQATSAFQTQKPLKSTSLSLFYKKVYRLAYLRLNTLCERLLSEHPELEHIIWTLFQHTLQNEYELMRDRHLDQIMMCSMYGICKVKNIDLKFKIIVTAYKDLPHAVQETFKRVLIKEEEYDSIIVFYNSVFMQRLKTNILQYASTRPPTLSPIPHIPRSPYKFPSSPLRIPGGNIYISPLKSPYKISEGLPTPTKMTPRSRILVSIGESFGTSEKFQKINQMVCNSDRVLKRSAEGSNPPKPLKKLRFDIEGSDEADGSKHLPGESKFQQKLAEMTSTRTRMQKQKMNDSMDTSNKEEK
Experiment: Competition experiment (Ni column, SDS-PAGE): partition of E2F(243-437) between RbAB and RbABC
Assay type: binding
Settings: His6-RbABC against non-tagged RbAB, proteins mixed at 40 μM
Experimental: Binding of the various E2F constructs to RbAB and RbABC was measured by isothermal titration calorimetry using a MicroCal Omega VP-ITC machine (MicroCal Inc., Northampton, USA). The E2F constructs at a concentration between 100-150 μM were titrated into 12-15 μM Rb at a temperature of 22° C. Proteins were dialysed against 50 mM Tris pH 7.6, 100 mM NaCl and 1 mM TCEP. After subtraction of the dilution heats, calorimetric data was analysed using the evaluation software MicroCal Origin v5.0 (MicroCal Software Inc.). For all of the titrations, the stoichiometry of ligand binding to Rb was very close to 1.0. For E2F(243-437) binding to Rb, the binding affinity and the heat change associated with binding were such that we could only establish that binding was tighter than 10 nM.
The proteins used in these experiments were His6-RbABC (RESIDUES 380-929); MW 66.07 kDa, non-tagged RbAB (residues 372-787); MW 48.67 KDa, are His6-RbAB (residues 376-792); MW 49.86 KDa, E2F(243-437); MW 21.45 KDa HPV E7 (residues 17-98); MW 9.38 KDa and E2F(409-426); MW 2.12 KDa. Protein concentrations were carefully determined by u.v. spectroscopy and confirmed by ITC titrations. The small acidic E2F proteins stain much weaker than Rb with Coomassie on SDS-PAGE. For all gel lanes contained a final RbAB concentration of ca. 7 μM. […]

partitioning between the two pRb species: approximately equal partitioning
B1: E2F(243-437): Recombinant human E2F1(243-437) expressed in E. coli (protein, UniProt Q01094 243-437, looked up, fragment)
chain: LAYVTCQDLRSIADPAEQMVMVIKAPPETQLQAVDSSENFQISLKSKQGPIDVFLCPEETVGGISPGKTPSQEVTSEEENRATDSATIVSPPPSSPPSSLTTDPSQSLLSLEQEPLLSRMGSLRAPVDEDRLSPLVAADSLLEHVREDFSGLLPEEFISLSPPHEALDYHFGLEEGEGIRDLFDCDFGDLTPLDF
